Earlier results as cited in paper PMC3273586 (International Journal of Pharmaceutics, 2011).

Settings: solution stored for 20 h at room temperature; ref Dijkhuizen-Radersma et al., 2002

In the case of calcitonin, the “aggregation of solution on storage” value is given as “early onset of aggregation”.
